Data as given in patent US20230365640A1 (ACADEMIA SINICA, published 2023).

Biological target: recombinant SARS-CoV-2 RBD (His-tagged SARS-CoV-2 RBD fusion protein) (SARS-CoV-2, UniProt P0DTC2 328-585)
Assay: ELISA

B1: Dectin-2.Fc (CLEC6A) protein (Fc fusion)
chain: TYHFTYGETGKRLSELHSYHSSLTCFSEGTKVPAWGCCPASWKSFGSSCYFISSEEKVWSKSEQNCVEMGAHLVVFNTEAEQNFIVQQLNESFSYFLGLSDPQGNNNWQWIDKTPYEKNVRFWHLGEPNHSAEQCASIVFWKPTGWGWNDVICETRRNSICEMNKIYL
Does B1 bind?
Result: no binding (tested: 50 µg/ml)

B2: Mincle.Fc (CLEC4F) protein (Fc fusion)
chain: RCVVTFRIFQTCDEKKFQLPENFTELSCYNYGSGSVKNCCPLNWEYFQSSCYFFSTDTISWALSLKNCSAMGAHLVVINSQEEQEFLSYKKPKMREFFIGLSDQVVEGQWQWVDGTPLTKSLSFWDVGEPNNIATLEDCATMRDSSNPRQNWNDVTCFLNYFRICEMVGINPLNKGKSL
Does B2 bind?
Result: no binding (tested: 50 µg/ml)

B3: Dectin-1.Fc (CLEC7A) protein (Fc fusion)
chain: TMAIWRSNSGSNTLENGYFLSRNKENHSQPTQSSLEDSVTPTKAVKTTGVLSSPCPPNWIIYEKSCYLFSMSLNSWDGSKRQCWQLGSNLLKIDSSNELGFIVKQVSSQPDNSFWIGLSRPQTEVPWLWEDGSTFSSNLFQIRTTATQENPSPNCVWIHVSVIYDQLCSVPSYSICEKKFSM
Does B3 bind?
Result: no binding (tested: 50 µg/ml)

B4: CLEC5A.Fc protein (Fc fusion)
chain: PQIFNKSNDGFTTTRSYGTVSQIFGSSSPSPNGFITTRSYGTVCPKDWEFYQARCFFLSTSESSWNESRDFCKGKGSTLAIVNTPEKLKFLQDITDAEKYFIGLIYHREEKRWRWINNSVFNGNVTNQNQNFNCATIGLTKTFDAASCDISYRRICEKNAK
Does B4 bind?
Result: no binding (tested: 50 µg/ml)
